# Data from patent US20090208538A1.
# Legend:
# HLA-A*0201 (human) [1] = assay: iTopia affinity
# HLA-A*0201 (human) [2] = assay: iTopia binding
# HLA-A*0201 (human) [3] = assay: iTopia net score
substance,measurement,setting,value
cdr2 246-254 RALELEAV (peptide),ED50,HLA-A*0201 (human) [1],1000 nM
same,binding vs positive control,HLA-A*0201 (human) [2],> 30%
same,iScore,HLA-A*0201 (human) [3],0.352
